Source: paper PMC5786281 (Oncogene, 2017)

Biological target: EZH2 (endogenous) (human (endogenous in MDA-MB-231, …, UniProt Q15910 1-746))
Experiment: co-IP

Chain of EZH2 (endogenous) (human (Q15910 whole entry): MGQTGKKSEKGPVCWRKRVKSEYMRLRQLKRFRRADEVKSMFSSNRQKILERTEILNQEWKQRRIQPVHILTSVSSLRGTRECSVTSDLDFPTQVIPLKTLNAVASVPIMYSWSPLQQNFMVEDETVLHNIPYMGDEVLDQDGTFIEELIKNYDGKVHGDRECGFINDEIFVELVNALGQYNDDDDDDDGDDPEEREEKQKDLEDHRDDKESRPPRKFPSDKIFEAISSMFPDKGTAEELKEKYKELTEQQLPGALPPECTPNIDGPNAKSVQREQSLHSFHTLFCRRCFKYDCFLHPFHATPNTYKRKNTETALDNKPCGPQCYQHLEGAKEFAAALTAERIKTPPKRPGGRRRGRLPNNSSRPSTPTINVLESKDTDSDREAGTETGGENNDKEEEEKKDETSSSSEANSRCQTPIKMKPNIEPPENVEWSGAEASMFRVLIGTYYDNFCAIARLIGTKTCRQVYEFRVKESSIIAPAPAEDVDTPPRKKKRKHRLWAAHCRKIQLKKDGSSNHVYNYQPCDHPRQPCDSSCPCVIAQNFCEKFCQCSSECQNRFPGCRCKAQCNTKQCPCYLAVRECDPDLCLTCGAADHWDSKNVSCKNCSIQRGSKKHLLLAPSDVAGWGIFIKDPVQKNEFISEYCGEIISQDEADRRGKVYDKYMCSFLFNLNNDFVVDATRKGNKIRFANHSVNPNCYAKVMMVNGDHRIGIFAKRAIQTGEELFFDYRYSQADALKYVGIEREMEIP

B1: EED (endogenous) (natural protein)
chain: not shown
With B1 the “fold binding with PARPi against without PARPi” value was ~4.4 times.
